According to IntAct's records for PubMed 11297558:

B1: Adhesion G protein-coupled receptor E5 (Homo sapiens), P48960 (parent)
chain: MGGRVFLAFCVWLTLPGAETQDSRGCARWCPQNSSCVNATACRCNPGFSSFSEIITTPTETCDDINECATPSKVSCGKFSDCWNTEGSYDCVCSPGYEPVSGAKTFKNESENTCQDVDECQQNPRLCKSYGTCVNTLGSYTCQCLPGFKFIPEDPKVCTDVNECTSGQNPCHSSTHCLNNVGSYQCRCRPGWQPIPGSPNGPNNTVCEDVDECSSGQHQCDSSTVCFNTVGSYSCRCRPGWKPRHGIPNNQKDTVCEDMTFSTWTPPPGVHSQTLSRFFDKVQDLGRDSKTSSAEVTIQNVIKLVDELMEAPGDVEALAPPVRHLIATQLLSNLEDIMRILAKSLPKGPFTYISPSNTELTLMIQERGDKNVTMGQSSARMKLNWAVAAGAEDPGPAVAGILSIQNMTTLLANASLNLHSKKQAELEEIYESSIRGVQLRRLSAVNSIFLSHNNTKELNSPILFAFSHLESSDGEAGRDPPAKDVMPGPRQELLCAFWKSDSDRGGHWATEGCQVLGSKNGSTTCQCSHLSSFAILMAHYDVEDWKLTLITRVGLALSLFCLLLCILTFLLVRPIQGSRTTIHLHLCICLFVGSTIFLAGIENEGGQVGLRCRLVAGLLHYCFLAAFCWMSLEGLELYFLVVRVFQGQGLSTRWLCLIGYGVPLLIVGVSAAIYSKGYGRPRYCWLDFEQGFLWSFLGPVTFIILCNAVIFVTTVWKLTQKFSEINPDMKKLKKARALTITAIAQLFLLGCTWVFGLFIFDDRSLVLTYVFTILNCLQGAFLYLLHCLLNKKVREEYRKWACLVAGGSKYSEFTSTTSGTGHNQTRALRASESGI
B2: Adhesion G protein-coupled receptor E2 (Homo sapiens), Q9UHX3 (parent)
chain: MGGRVFLVFLAFCVWLTLPGAETQDSRGCARWCPQDSSCVNATACRCNPGFSSFSEIITTPMETCDDINECATLSKVSCGKFSDCWNTEGSYDCVCSPGYEPVSGAKTFKNESENTCQDVDECQQNPRLCKSYGTCVNTLGSYTCQCLPGFKLKPEDPKLCTDVNECTSGQNPCHSSTHCLNNVGSYQCRCRPGWQPIPGSPNGPNNTVCEDVDECSSGQHQCDSSTVCFNTVGSYSCRCRPGWKPRHGIPNNQKDTVCEDMTFSTWTPPPGVHSQTLSRFFDKVQDLGRDYKPGLANNTIQSILQALDELLEAPGDLETLPRLQQHCVASHLLDGLEDVLRGLSKNLSNGLLNFSYPAGTELSLEVQKQVDRSVTLRQNQAVMQLDWNQAQKSGDPGPSVVGLVSIPGMGKLLAEAPLVLEPEKQMLLHETHQGLLQDGSPILLSDVISAFLSNNDTQNLSSPVTFTFSHRSVIPRQKVLCVFWEHGQNGCGHWATTGCSTIGTRDTSTICRCTHLSSFAVLMAHYDVQEEDPVLTVITYMGLSVSLLCLLLAALTFLLCKAIQNTSTSLHLQLSLCLFLAHLLFLVAIDQTGHKVLCSIIAGTLHYLYLATLTWMLLEALYLFLTARNLTVVNYSSINRFMKKLMFPVGYGVPAVTVAISAASRPHLYGTPSRCWLQPEKGFIWGFLGPVCAIFSVNLVLFLVTLWILKNRLSSLNSEVSTLRNTRMLAFKATAQLFILGCTWCLGILQVGPAARVMAYLFTIINSLQGVFIFLVYCLLSQQVREQYGKWSKGIRKLKTESEMHTLSSSAKADTSKPSTVN

Variants of: B1
Conditions: with daf_human CD55, P08174
daf_human CD55, P08174, sequence (P08174 whole entry): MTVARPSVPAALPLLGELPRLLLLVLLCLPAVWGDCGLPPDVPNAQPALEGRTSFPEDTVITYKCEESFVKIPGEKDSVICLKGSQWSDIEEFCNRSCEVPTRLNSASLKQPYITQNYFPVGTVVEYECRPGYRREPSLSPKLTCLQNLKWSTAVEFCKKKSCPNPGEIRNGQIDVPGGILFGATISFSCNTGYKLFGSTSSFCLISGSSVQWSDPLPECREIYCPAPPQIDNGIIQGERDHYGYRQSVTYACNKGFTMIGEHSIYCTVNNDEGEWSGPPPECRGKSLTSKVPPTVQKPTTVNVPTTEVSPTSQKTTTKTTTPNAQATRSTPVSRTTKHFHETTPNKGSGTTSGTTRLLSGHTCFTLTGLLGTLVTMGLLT

Variant | effect of a mutation on the interaction
T59M | decreasing interaction strength
N33D | decreasing interaction strength
P71L | decreasing interaction strength

Variants of: B2
Conditions: with daf_human CD55, P08174

Variant | effect of a mutation on the interaction
L74P | causing an interaction
M62T | causing an interaction
D36N | causing an interaction
